Measurements as given in publication PMC4280530 (2014).

B1: anti-Cry1Ac nanobody Nb61 (VHH)
VHH: QVQLQESGGGSVQAGGSLRLSCEASENTYNSVYMAWFRQAPEKEREGVAVLSTGGGRTYYTDSVKGRFTISRDNAKNMVYLQMNSLKPDDTAMYYCAATYTGDSYGPSLYYLTPGRYEYWGQGTQVTVSS
B2: anti-Cry1Ac nanobody Nb59 (VHH)
VHH: QVQLQESGGGLVQPGGSLRLSCAASGFTFRDYYMTWVRQAPGQGLEWVSSISFGGGRTYYADSVKGRFTISRDNPENTLYLQLSNLKTEDTAMYYCARGRPNADYDRRGQGTQVTVSS
B3: anti-Cry1Ac nanobody Nb58 (VHH)
VHH: QVQLQESGGGLVQPGGSLRLSCTASGFTFSSYEMDWFRRAPGKELEWVAGITSGGEGTSYRNSVKGRFTISRDNAKNTLYLHLNSLKNEDTAMYYCAKDRRALGEVGQGTQVTVSS
B4: anti-Cry1Ac nanobody Nb44 (VHH)
VHH: QVQLQESGGGSVQAGGSLRLSCATSGLTYSARITWFRQAPEKEREGVATFSTGSGSTGYADSVKGRFTISQDNAKNTLYLQMNNLKPEDTAMYYCAADTSTSWRDIVLVARYKYWGQGTQVTVSS

What was measured:
[1] = molecular target: T1, Bacillus thuringiensis (Bt) Cry1Ac toxin (Bacillus thuringiensis, UniProt P05068 1-1178); test: SPR
[2] = molecular target: T1, Bacillus thuringiensis (Bt) Cry1Ac toxin; test: SPR; remark: listed apart in the source

T1 sequence (P05068 whole entry): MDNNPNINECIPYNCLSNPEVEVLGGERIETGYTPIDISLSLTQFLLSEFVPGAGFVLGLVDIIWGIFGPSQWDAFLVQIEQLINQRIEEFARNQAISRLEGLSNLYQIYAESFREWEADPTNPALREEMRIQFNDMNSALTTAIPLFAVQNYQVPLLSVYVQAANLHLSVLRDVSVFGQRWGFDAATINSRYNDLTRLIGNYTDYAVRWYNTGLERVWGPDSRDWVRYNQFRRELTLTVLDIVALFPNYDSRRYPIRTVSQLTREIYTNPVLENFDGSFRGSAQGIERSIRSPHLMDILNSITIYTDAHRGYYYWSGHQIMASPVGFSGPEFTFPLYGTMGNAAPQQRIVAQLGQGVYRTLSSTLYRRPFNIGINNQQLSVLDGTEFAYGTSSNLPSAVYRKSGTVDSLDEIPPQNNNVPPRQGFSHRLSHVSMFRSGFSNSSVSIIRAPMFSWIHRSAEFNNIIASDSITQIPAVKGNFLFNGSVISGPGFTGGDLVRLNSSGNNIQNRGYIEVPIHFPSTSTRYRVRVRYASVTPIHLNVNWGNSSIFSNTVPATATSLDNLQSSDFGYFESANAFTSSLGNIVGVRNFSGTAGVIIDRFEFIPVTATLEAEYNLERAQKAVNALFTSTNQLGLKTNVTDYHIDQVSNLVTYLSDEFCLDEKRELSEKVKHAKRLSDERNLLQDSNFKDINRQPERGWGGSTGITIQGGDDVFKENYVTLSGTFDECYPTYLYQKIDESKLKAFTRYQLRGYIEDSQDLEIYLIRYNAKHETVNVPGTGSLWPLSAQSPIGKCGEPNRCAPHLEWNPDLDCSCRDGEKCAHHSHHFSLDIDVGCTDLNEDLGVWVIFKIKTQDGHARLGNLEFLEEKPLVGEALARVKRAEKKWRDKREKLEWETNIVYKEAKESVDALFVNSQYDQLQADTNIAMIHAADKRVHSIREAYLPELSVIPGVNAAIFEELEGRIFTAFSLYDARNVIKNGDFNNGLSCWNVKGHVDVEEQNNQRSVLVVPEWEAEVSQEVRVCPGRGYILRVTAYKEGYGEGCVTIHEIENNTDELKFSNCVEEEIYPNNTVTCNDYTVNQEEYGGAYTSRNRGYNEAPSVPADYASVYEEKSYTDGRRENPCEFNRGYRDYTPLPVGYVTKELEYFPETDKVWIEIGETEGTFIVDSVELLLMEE

Binder	koff [1] [s⁻¹]	Kd [2] [nM]
B1	0.00084	60.9
B2	0.00178	18
B3	0.00151	23.2
B4	0.0014	6.89
